Molecular target: MHC class 1 molecules on the target cells
Experiment: cell-based or functional assay

monoclonal antibody W6/32 (anti-pan class 1 MHC monoclonal antibody; DAKO)
percent lysis of Volle EBV-LCLs by SKEM NK lines 2, 6 and 7 at a 10:1 E/T ratio after preculture of the targets with W6/32: > 80%
